Where “and” joins values, the source holds several entries; their conditions need not be identical. Identical values can stand only once.
Experiments:
[1] = target: Aggregation Suppressing Protein A (AgsA) wild type, tagless (Salmonella enterica serovar typhimurium LT2); assay: SEC-MALS; separated 24-mer fraction of the wild type after size exclusion chromatography; Superdex 200 10/300, 20 mM Tris, 50 mM NaCl, pH 7.5
[2] = target: Aggregation Suppressing Protein A (AgsA) wild type, tagless (Salmonella enterica serovar typhimurium LT2); assay: SEC-MALS; separated 18-mer fraction of the wild type after size exclusion chromatography; Superdex 200 10/300, 20 mM Tris, 50 mM NaCl, pH 7.5
[3] = target: Aggregation Suppressing Protein A (AgsA) wild type, tagless (Salmonella enterica serovar typhimurium LT2); assay: SEC-MALS; unseparated wild type protein; Superose 6 10/300, 20 mM Tris, 200 mM NaCl, pH 8.0; about 100 uL of 2 mg/mL injected
[4] = target: AgsA:DD, double deletion AgsA lacking 11 residues at the N-terminus and 9 residues at the C-terminus, tagless (Salmonella enterica serovar typhimurium LT2); assay: SEC; analytical SEC, Superose 6 10/300, 20 mM Tris, 50 mM NaCl, pH 7.5, calibrated with molecular weight markers; oligomeric state in solution
[5] = target: AgsA:DD, double deletion AgsA lacking 11 residues at the N-terminus and 9 residues at the C-terminus, tagless (Salmonella enterica serovar typhimurium LT2); assay: crystal structure; AgsA:DD; 30% polypropylene glycol 400, 0.1 M NaCl, 20 °C; space group R32, 3 dimers in the asymmetric unit, 7.5 Å
[6] = target: AgsA:DelC, AgsA lacking 9 residues at the C-terminus, tagless (Salmonella enterica serovar typhimurium LT2); assay: SEC; analytical SEC, Superose 6 10/300, 20 mM Tris, 50 mM NaCl, pH 7.5, calibrated with molecular weight markers; oligomeric state in solution
[7] = target: AgsA:DelC, AgsA lacking 9 residues at the C-terminus, tagless (Salmonella enterica serovar typhimurium LT2); assay: crystal structure; AgsA:DelC; 30% pentaerythritol propoxylate (5/4 PO/OH), 0.1 M MES pH 6.0, 30% glycerol, 20 °C; space group I23, a dimer in the asymmetric unit, 4.1 Å
[8] = target: AgsA:His-DD, hexa-histidine tagged double deletion construct of AgsA (Salmonella enterica serovar typhimurium LT2); assay: SEC; analytical SEC, Superose 6 10/300, 20 mM Tris, 50 mM NaCl, pH 7.5, calibrated with molecular weight markers; oligomeric state in solution
[9] = target: core ACD fragment of AgsA:His-DD (degraded fragment in the crystal, residues 35-147) (Salmonella enterica serovar typhimurium LT2); assay: crystal structure; AgsA:His-DD degraded in the drop; 25% pentaerythritol propoxylate (5/4 PO/OH), 0.1 M MES pH 6.0, 20% MPD, 20 °C; space group P4(1)2(1)2, 2.0 Å

**Q.** Which results are given for “Aggregation Suppressing Protein A (AgsA) wild type, tagless (natural protein)”?
**A.** stoichiometry N [1]: 18 and 24; stoichiometry N [2]: 18; stoichiometry N [3]: 18 and 24

**Q.** What does the source list for “AgsA:DD, double deletion AgsA lacking 11 residues at the N-terminus and 9 residues at the C-terminus, tagless (domain or fragment)”?
**A.** stoichiometry N [4]: 18; stoichiometry N [5]: 18

**Q.** Which results are given for “AgsA:DelC, AgsA lacking 9 residues at the C-terminus, tagless (domain or fragment)”?
**A.** stoichiometry N [6]: 24; stoichiometry N [7]: 24

**Q.** For “AgsA:His-DD, hexa-histidine tagged double deletion construct of AgsA (domain or fragment)”, which stoichiometry N [8] is on record?
**A.** Its stoichiometry N is 24.

**Q.** Which stoichiometry N [9] does the source give for “core ACD fragment of AgsA:His-DD (degraded fragment in the crystal, residues 35-147) (domain or fragment)” here?
**A.** The stoichiometry N was 2.

Source: publication PMC4823740
